The RNAGym collection of RNA variant scans (doi:10.1021/acssynbio.7b00057)

B1: Pistol ribozyme (parent)
chain: GGGUCGUUGUUCCAUAAUCGCGUGGAUAUGGCACGCAAGUUUCUACCGGGCACCGUAAAUGUCCGACUGGAGCCGUUCGGGCGGCUAUAAACAGACCUCAGGCCCGAAGCGUGGCGGCACCUGCCGCCGGUGGUAAAAAAGAUCGGAAGAGCACACGUCU

Variants of: B1
Test: aptazyme ON/OFF ratio, guanine; higher = stronger switching; co-transcriptional cleavage with and without guanine

In order of falling “aptazyme ON/OFF ratio” value:
1. U7A U8C G9U U10C C12G  1.57
2. U7A U8C G9U U10C  1.55
3. U7A U8C G9C U10A U11C C13G  1.46
4. U7A U8C G9U C12G  1.45
5. U7A U8C G9U U10A C12U C13U  1.42
6. U7A U8C G9C U10A U11C C13A  1.41
7. U7A U8C G9U U10A  1.4
8. U7A U8C G9U U10A U11G C12U  1.35
9. U7A U8C G9U U10A U11A C12G C13U  1.34
10. U7A U8C G9U C12U  1.33
11. U7A U8C G9U U10A C12G C13U  1.32
12. U7A U8C G9C U11G C12A C13G  1.31
13. U7A U8C G9U U10A C12U C13A  1.29
14. U7A U8C G9C U11G C12U  1.28
15. U7A U8C G9U C13A  1.27
16. U7A U8C G9U C12A C13U  1.27
17. U7A U8C G9U U10C C12A  1.27
18. U7A U8C G9U U10A U11C C12G  1.27
19. U7A U8C G9C U10A U11C C12U C13G  1.26
20. U7A U8C G9U C12A  1.26
21. U7A U8C G9U U10A U11G C12G C13G  1.26
22. U7A U8C G9U U10A C12A  1.25
23. U7A U8C G9U C13U  1.23
24. U7A U8C G9U U10A U11C C12A C13U  1.23
25. U7A U8C G9U U10A C12G  1.23
26. U7A U8C G9U U10A U11C C12G C13A  1.23
27. U7A U8C G9U U10A C12G C13G  1.22
28. U7A U8C G9C U10A U11C C12U C13U  1.22
29. U7A U8C G9U U10A U11G C12U C13G  1.21
30. U7A U8C G9U U10A U11G C12U C13U  1.21
31. U7A U8C G9U U10A U11C C12A  1.2
32. U7A U8C G9U U10A U11A C12G C13G  1.2
33. U7A U8C G9U U10A U11G C12G C13A  1.2
34. U7A U8C G9U C12A C13G  1.19
35. U7A U8C G9C U10A U11G C12U  1.19
36. U7A U8C G9U U10A C12U  1.18
37. U7A U8C G9U U10A U11C C12G C13U  1.18
38. U7A U8C G9C U10C  1.18
39. U7A U8C G9U U10A C12A C13U  1.18
40. U7A U8C G9C U10G U11C C12G C13G  1.18
41. U7A U8C G9C U10G U11C C12G C13A  1.18
42. U7A U8C G9C U10C U11G C12A C13A  1.18
43. U7A U8C G9U U10A U11G C12G C13U  1.18
44. U7A U8C G9U U10A C13A  1.18
45. U7A U8C G9U U10A U11C C12A C13A  1.17
46. U7A U8C G9U U10A U11G C12U C13A  1.17
47. U7A U8C G9U U10A C12U C13G  1.17
48. U7A U8C G9C U10G U11A C12G C13G  1.17
49. U7A U8C G9C U10A C12G C13U  1.17
50. U7A U8C G9C U10A  1.17
51. U7A U8C G9C U10G U11G C12A C13A  1.15
52. U7A U8C G9U C12A C13A  1.15
53. U7A U8C G9U U10A U11A C12G C13A  1.15
54. U7A U8C G9U U10A C12A C13G  1.15
55. U7A U8C G9U U10A C13U  1.15
56. U7A U8C G9U U10A U11C C12A C13G  1.14
57. U7A U8C G9C U10A C12G C13G  1.14
58. U7A U8C G9C U10G U11G C12G C13G  1.13
59. U7A U8C G9C U11G C13G  1.13
60. U7A U8C G9C U10A U11A C13U  1.13
61. U7A U8C G9U U10C C12G C13A  1.13
62. U7A U8C G9C U10G C12G C13U  1.13
63. U7A U8C G9C U11G C12G  1.12
64. U7A U8C G9C U10G U11G C13A  1.12
65. U7A U8C G9C U10G C12G  1.12
66. U7A U8C G9C U10A U11C C13U  1.12
67. U7A U8C G9C U10A U11G C13G  1.12
68. U7A U8C G9U U10A U11G C12G  1.12
69. U7A U8C G9C U10G C12A C13G  1.12
70. U7A U8C G9C U10A U11G C12G  1.12
71. U7A U8C G9C U11G C12G C13A  1.12
72. U7A U8C G9C U11G C12G C13G  1.12
73. U7A U8C G9C U10C U11G C12G C13A  1.12
74. U7A U8C G9U U10A C12A C13A  1.12
75. U7A U8C G9C U10G U11C C12G C13U  1.12
76. U7A U8C G9U U10A C12G C13A  1.11
77. U7A U8C G9C U11A  1.11
78. U7A U8C G9C U11G C12A C13U  1.11
79. U7A U8C G9C U11G C12A C13A  1.11
80. U7A U8C G9C U10A U11G  1.11
81. U7A U8C G9C U10G C12G C13G  1.11
82. U7A U8C G9C U11G C12G C13U  1.11
83. U7A U8C G9C U10C U11G C12U C13G  1.11
84. U7A U8C G9C U10C U11G C12A C13U  1.11
85. U7A U8C G9C U11G C13U  1.1
86. U7A U8C G9C U10A U11G C13A  1.1
87. U7A U8C G9C U10C U11A C12G C13U  1.1
88. U7A U8C G9C U10A C12G C13A  1.1
89. U7A U8C G9C U10G U11G C13U  1.09
90. U7A U8C G9C U10A U11G C13U  1.09
91. U7A U8C G9C U10A U11A C12U C13A  1.09
92. U7A U8C G9C U11A C12G  1.09
93. U7A U8C G9C U11G  1.09
94. U7A U8C G9C U11A C12U C13A  1.09
95. U7A U8C G9C U10C U11G C12U C13U  1.09
96. U7A U8C G9C U10C U11G C12U C13A  1.09
97. U7A U8C G9C U10G U11G C13G  1.08
98. U7A U8C G9C U11A C12A C13G  1.08
99. U7A U8C G9C U10G U11G C12G C13A  1.08
100. U7A U8C G9C U10G U11G C12A C13U  1.08
101. U7A U8C G9C U10A U11A C12U C13G  1.08
102. U7A U8C G9C U11A C12A  1.08
103. U7A U8C G9C U10A U11A C12A C13G  1.08
104. U7A U8C G9C U10C U11A C13G  1.08
105. U7A U8C G9C U10A U11C  1.08
106. U7A U8C G9U U10A U11C C12G C13G  1.08
107. U7A U8C G9C U10C U11A C12G C13G  1.08
108. U7A U8C G9C U10G U11A C12G C13U  1.08
109. U7A U8C G9C U10C U11G C12G C13G  1.08
110. U7A U8C G9C U10C U11G C12G C13U  1.08
111. U7A U8C G9U U10A C13G  1.08
112. U7A U8C G9C U10A U11A C12G C13G  1.08
113. U7A U8C G9C U11A C12A C13A  1.07
114. U7A U8C G9C U10G C12A  1.07
115. U7A U8C G9C U10G U11G C12A C13G  1.07
116. U7A U8C G9U U10A U11G C12A  1.07
117. U7A U8C G9C U10A U11A C13A  1.07
118. U7A U8C G9C U11A C12U C13U  1.07
119. U7A U8C G9C U10G C12A C13U  1.07
120. U7A U8C G9C U11A C13G  1.07
121. U7A U8C G9C U10C U11A C13A  1.07
122. U7A U8C G9C U10A U11A  1.07
123. U7A U8C G9C U10C U11G C12A C13G  1.07
124. U7A U8C G9C U10A U11A C12G C13U  1.07
125. U7A U8C G9C U10C U11A C12A C13G  1.06
126. U7A U8C G9C U10A U11A C13G  1.06
127. U7A U8C G9C C12U  1.06
128. U7A U8C G9C U10G C12A C13A  1.06
129. U7A U8C G9C U11C C12A C13A  1.06
130. U7A U8C G9C U11A C12A C13U  1.05
131. U7A U8C G9C U10G U11G C12G C13U  1.05
132. U7A U8C G9C U11G C13A  1.05
133. U7A U8C G9C U10A U11A C12U C13U  1.05
134. U7A U8C G9C U11A C12U  1.05
135. U7A U8C G9C U11A C13U  1.05
136. U7A U8C G9C U11A C13A  1.05
137. U7A U8C G9C U10A U11A C12A C13U  1.05
138. U7A U8C G9C U10A U11A C12A C13A  1.05
139. U7A U8C G9C U10A U11C C12U C13A  1.05
140. U7A U8C G9C U10C U11C C13G  1.05
141. U7A U8C G9C U10G C12G C13A  1.05
142. U7A U8C G9C U10C U11C C12A  1.05
143. U7A U8C G9C U10A U11A C12G C13A  1.05
144. U7A U8C G9C U10C U11A C12U C13A  1.04
145. U7A U8C G9C U11A C12U C13G  1.04
146. U7A U8C G9C U10A U11G C12A  1.04
147. U7A U8C G9U U10A U11C C12U  1.04
148. U7A U8C G9C U10C U11A C13U  1.04
149. U7A U8C G9C U11C C12A C13G  1.04
150. U7A U8C G9C U11C C12A C13U  1.04
151. U7A U8C G9C U10C U11A C12A C13U  1.03
152. U7A U8C G9U C13G  1.03
153. U7A U8C G9C U10C U11C C13A  1.03
154. U7A U8C G9C U10C U11A C12G C13A  1.03
155. U7A U8C G9C U10C U11C C12G  1.03
156. U7A U8C G9C U10G C12U  1.02
157. U7A U8C G9C U10C U11A C12U C13U  1.02
158. U7A U8C G9C U10C U11C C12U C13G  1.02
159. U7A U8C G9C U10C U11C C12U C13A  1.02
160. U7A U8C G9C U10G U11A C12G C13A  1.02
161. U7A U8C G9C U10C U11A C12A C13A  1.01
162. U7A U8C G9C U10C U11A C12U C13G  1.01
163. U7A U8C G9C U10G  1.01
164. U7A U8C G9C U11C  1
165. U7A U8C G9C U10C U11C C12U C13U  0.988
166. U7A U8C G9C U10C U11C C13U  0.981
167. U7A U8C G9C U10C U11C C12U  0.94
